Tests used:
[1] = tested on: trigeminal ganglion (TG) neuronal cells; assay: Trigeminal ganglion neuronal growth assay; type: cell-based, mouse; conditions: VEGF-B on three consecutive days, culture day 6 (FIG. 11)
[2] = tested on: corneal nerves of thy1-YFP mice; assay: Corneal micropocket assay (VEGF-B releasing pellet); type: in vivo, mouse
Protocol: A sucralfate/hydron pellet impregnated with VEGF-B (100 ng/pellet) or vehicle was implanted into a corneal micropocket in anesthetized thy1-YFP mice subjected to a partial lamellar incision parallel to the limbus. Rogers, M. S. et al., The mouse cornea micropocket angiogenesis assay, Nature protocols 2, 2545-2550 (2007). Mice were allowed to recover for a day, after which a subset received a corneal debridement that removed a circular 2-mm region of central epithelium and the underlying sub-basal nerves. The corneas were harvested 3 days later, fixed in 4% paraformaldehyde (PFA) for 30 minutes, mounted in Vectashield medium (Vector Labs H1000) as whole mounts, and nerves imaged using the AxioObserver system as described above.
Harvested corneas from thy1-YFP mice were fixed in 4% PFA for 1 hr and then stained with 4,6-diamidino-2-phenylindole (DAPI) to label nuclei before mounting. The YFP fluorescent nerves were imaged with a fluorescence microscope at the site of pellet implantation and at a site 180 degrees opposite to the pellet. Images were analyzed using Neurolucida. […] wild type and Vegf-b^−/− mouse corneas were flat mounted and fixed as described. Pan, Z., Fukuoka et al., FASEB J. 27, 2756-2767 (2013). Samples were stained with rabbit anti-β3 tubulin antibody (Abcam 18207) overnight at 4° C., followed by alexaFluor568-conjugated goat anti-rabbit IgG (Life Technologies A11011) at room temperature for 1 hr and counter-stained with DAPI.

[3] = tested on: corneal epithelium of C57BL/6 and Vegf-b−/− mice; assay: Corneal epithelial wound healing after debridement (fluorescein staining); type: in vivo, mouse; conditions: 0.5 ng subconjunctival, 48 hours (FIG. 6A)
Protocol: Wild type C57BL/6 and Vegf-b^−/− mice were subject to corneal epithelial debridement as described above or left intact. A 5 ul volume containing 0.5 ng VEGF-B^186 in PBS was injected subconjunctivally, at the lateral temporal bulbar conjunctiva, using a 10-μl micro-syringe (Hamilton Co). Equal volume of 0.1% bovine serum albumin (BSA) was used in control mice. The recovery of the corneal epithelial injury was imaged at 24, 40 and 48 hours by applying 1% fluorescein solution to the corneal surface and wounds photographed under diffuse cobalt blue light attached to a slit lamp bio-microscope (Nikon FS-3, Nikon) connected to a digital camera (Canon EOS 60D). The corneal epithelial defect areas were quantified by analyzing the images with Photoshop CS4 (Adobe). Corneas were harvested after one week for immunodetection of nerves. Possible growth of blood vessel into the cornea was monitored by slit lamp examination.

B1: recombinant mouse VEGF-B^186 (protein, listed as Homo sapiens)
chain: MSPLLRRLLLAALLQLAPAQAPVSQPDAPGHQRKVVSWIDVYTRATCQPREVVVPLTVELMGTVAKQLVPSCVTVQRCGGCCPDDGLECVPTGQHQVRMQILMIRYPSSQLGEMSLEEHSQCECRPKKKDSAVKPDRAATPHHRPQPRSVPGWDSAPGAPSPADITHPTPAPGPSAHAAPSTTSALTPGPAAAAADAAASSVAKGGA
notes: vascular endothelial growth factor B; recombinant mouse VEGF-B186 (R&D 767-VE-010)
[1]
  dendrite length and branching: longer dendrites and more branches
[2]; 100 ng/pellet plus superficial corneal debridement, versus vehicle, 3 days
  innervation at sites of injury: significantly increased innervation throughout sites of injury
[2]; 100 ng/pellet, absence of injury, 3 days
  corneal nerve density or patterning: no alteration of corneal nerve density or patterning
[2]; 100 ng/pellet, limited (focal) injury, versus vehicle
  nerve density at the site of pellet implantation: significant increased nerve density
[3]; Vegf-b−/− mice
  injured epithelial area compared with untreated controls: only half the injured area
[3]; wild type mice
  epithelial healing: almost complete healing

From patent US9987329B2, “Methods for treating peripheral nerve damage” (Cornell University, priority 2014, dated 2018)
